Experimental findings from publication PMC2139951 are described below.

In assay [1] the target is Ran (recombinant, GTP form) (UniProt P62826).
Assay [2] shares this target. In words: inhibition of GAP-induced GTP hydrolysis on Ran.

As a reminder, the Kd is the constant that tells how readily two partners part at equilibrium. In the case of “recombinant Xenopus RanBP7 with COOH-terminal his-tag (natural protein)”, the offrate in assay [1] came to 2 h. The Kd in assay [2] was 0.025 µM. “recombinant importin-β (from UniProt Q14974 1-876) (natural protein; other documents disagree on this pair)”: the Kd in assay [2] was found to be 0.0008 µM.
